# In patent US20260167699A1 (Chugai, published 2026):
# T1: FcγRIIa(R) extracellular domain with C-terminal His tag (human, UniProt P12318 34-217)
# T1 construct: extracellular domain; R131 allotype; also called 2aR; CD32
# T1 sequence: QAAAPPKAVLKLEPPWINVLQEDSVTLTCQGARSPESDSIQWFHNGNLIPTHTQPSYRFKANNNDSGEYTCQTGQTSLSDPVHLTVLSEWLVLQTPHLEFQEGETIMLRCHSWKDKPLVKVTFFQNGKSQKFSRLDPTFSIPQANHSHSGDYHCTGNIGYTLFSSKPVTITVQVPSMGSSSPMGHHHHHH
# T2: FcγRIIa(H) extracellular domain with C-terminal His tag (human, UniProt P12318 34-217)
# T2 construct: extracellular domain; H131 allotype; also called 2aH; CD32
# T2 sequence: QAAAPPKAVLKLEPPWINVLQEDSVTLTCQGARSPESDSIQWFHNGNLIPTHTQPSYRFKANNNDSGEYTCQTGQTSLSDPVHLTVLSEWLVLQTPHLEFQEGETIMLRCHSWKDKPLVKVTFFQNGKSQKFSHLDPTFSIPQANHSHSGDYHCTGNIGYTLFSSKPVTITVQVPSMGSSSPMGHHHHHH
# T3: FcγRIIb extracellular domain with C-terminal His tag (human, UniProt P31994 43-217)
# T3 construct: extracellular domain; also called 2b; CD32
# T3 sequence: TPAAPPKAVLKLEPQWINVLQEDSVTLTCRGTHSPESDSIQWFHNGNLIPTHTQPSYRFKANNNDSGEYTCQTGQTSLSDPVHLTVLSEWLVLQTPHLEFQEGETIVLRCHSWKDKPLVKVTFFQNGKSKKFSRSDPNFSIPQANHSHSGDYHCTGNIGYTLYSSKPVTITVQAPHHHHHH
# How the values were obtained:
# Experiment in all cases: SPR; % of GpH7-A5/GpH7-B3/GpL16-k0
# [1] = target: T1, FcγRIIa(R) extracellular domain with …
# [2] = target: T2, FcγRIIa(H) extracellular domain with …
# [3] = target: T3, FcγRIIb extracellular domain with …
# [4] = target: T4, FcγRIIIa extracellular domain with C-terminal His tag (human, UniProt P08637 17-208)
# T4 construct: extracellular domain; also called 3a; CD16
# [5] = target: T5, FcγRIa extracellular domain with C-terminal His tag (human, UniProt P12314 16-292)
# T5 construct: extracellular domain; also called 1a; CD64
# T5 sequence (P12314 other isoform, or with tags, fused parts or gaps): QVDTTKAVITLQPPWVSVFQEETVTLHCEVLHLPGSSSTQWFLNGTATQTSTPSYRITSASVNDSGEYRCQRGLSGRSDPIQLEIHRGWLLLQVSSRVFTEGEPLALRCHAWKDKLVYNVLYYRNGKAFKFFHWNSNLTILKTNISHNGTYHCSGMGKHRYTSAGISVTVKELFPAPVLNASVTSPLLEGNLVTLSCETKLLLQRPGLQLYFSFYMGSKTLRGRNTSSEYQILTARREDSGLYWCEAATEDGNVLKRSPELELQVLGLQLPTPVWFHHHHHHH
# T4 sequence (P08637 other isoform, or with tags, fused parts or gaps): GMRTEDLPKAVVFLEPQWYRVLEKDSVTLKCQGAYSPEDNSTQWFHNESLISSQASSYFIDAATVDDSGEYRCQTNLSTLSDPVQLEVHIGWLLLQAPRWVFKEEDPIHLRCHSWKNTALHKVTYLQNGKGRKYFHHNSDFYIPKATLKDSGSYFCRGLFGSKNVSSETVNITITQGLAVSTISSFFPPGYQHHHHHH
Binder,He/Con 2aR [1] [%],He/Con 2aH [2] [%],He/Con 2b [3] [%],He/Con 3a [4] [%],He/Con 1a [5] [%]
"GpH7-A5/GpH7-B3 variant I332_19Q/GpL16-k0 (antibody, human IgG1, kappa, heterodimerized IgG1 (He Ab), mutation in one H chain only; also called He Ab) heavy 1: not shown heavy 2: not shown light: DIVMTQSPLSLPVTPGEPASISCQASESLVHSNRNTYLHWYLQKPGQSPQLLIYKVSNRFSGVPDRFSGSGSGTDFTLKISRVEAEDVGVYYCSQNTHVPPTFGQGTKVEIERTVAAPSVFIFPPSDEQLKSGTASVVCLLNNFYPREAKVQWKVDNALQSGNSQESVTEQDSKDSTYSLSSTLTLSKADYEKHKVYACEVTHQGLSSPVTKSFNRGEC",95.1,112,104,101,103
"GpH7-A5/GpH7-B3 variant I336_03V/GpL16-k0 (antibody, human IgG1, kappa, heterodimerized IgG1 (He Ab), mutation in one H chain only; also called He Ab) heavy 1: not shown heavy 2: not shown light: DIVMTQSPLSLPVTPGEPASISCQASESLVHSNRNTYLHWYLQKPGQSPQLLIYKVSNRFSGVPDRFSGSGSGTDFTLKISRVEAEDVGVYYCSQNTHVPPTFGQGTKVEIERTVAAPSVFIFPPSDEQLKSGTASVVCLLNNFYPREAKVQWKVDNALQSGNSQESVTEQDSKDSTYSLSSTLTLSKADYEKHKVYACEVTHQGLSSPVTKSFNRGEC",104,106,98.7,107,108
"GpH7-A5/GpH7-B3 variant I336_04F/GpL16-k0 (antibody, human IgG1, kappa, heterodimerized IgG1 (He Ab), mutation in one H chain only; also called He Ab) heavy 1: not shown heavy 2: not shown light: DIVMTQSPLSLPVTPGEPASISCQASESLVHSNRNTYLHWYLQKPGQSPQLLIYKVSNRFSGVPDRFSGSGSGTDFTLKISRVEAEDVGVYYCSQNTHVPPTFGQGTKVEIERTVAAPSVFIFPPSDEQLKSGTASVVCLLNNFYPREAKVQWKVDNALQSGNSQESVTEQDSKDSTYSLSSTLTLSKADYEKHKVYACEVTHQGLSSPVTKSFNRGEC",105,98.3,99.6,93.2,109
"GpH7-A5/GpH7-B3 variant I336_01G/GpL16-k0 (antibody, human IgG1, kappa, heterodimerized IgG1 (He Ab), mutation in one H chain only; also called He Ab) heavy 1: not shown heavy 2: not shown light: DIVMTQSPLSLPVTPGEPASISCQASESLVHSNRNTYLHWYLQKPGQSPQLLIYKVSNRFSGVPDRFSGSGSGTDFTLKISRVEAEDVGVYYCSQNTHVPPTFGQGTKVEIERTVAAPSVFIFPPSDEQLKSGTASVVCLLNNFYPREAKVQWKVDNALQSGNSQESVTEQDSKDSTYSLSSTLTLSKADYEKHKVYACEVTHQGLSSPVTKSFNRGEC",104,100,98.4,94.6,112
"GpH7-A5/GpH7-B3 variant I332_20W/GpL16-k0 (antibody, human IgG1, kappa, heterodimerized IgG1 (He Ab), mutation in one H chain only; also called He Ab) heavy 1: not shown heavy 2: not shown light: DIVMTQSPLSLPVTPGEPASISCQASESLVHSNRNTYLHWYLQKPGQSPQLLIYKVSNRFSGVPDRFSGSGSGTDFTLKISRVEAEDVGVYYCSQNTHVPPTFGQGTKVEIERTVAAPSVFIFPPSDEQLKSGTASVVCLLNNFYPREAKVQWKVDNALQSGNSQESVTEQDSKDSTYSLSSTLTLSKADYEKHKVYACEVTHQGLSSPVTKSFNRGEC",117,115,102,116,104
"GpH7-A5/GpH7-B3 variant I336_02A/GpL16-k0 (antibody, human IgG1, kappa, heterodimerized IgG1 (He Ab), mutation in one H chain only; also called He Ab) heavy 1: not shown heavy 2: not shown light: DIVMTQSPLSLPVTPGEPASISCQASESLVHSNRNTYLHWYLQKPGQSPQLLIYKVSNRFSGVPDRFSGSGSGTDFTLKISRVEAEDVGVYYCSQNTHVPPTFGQGTKVEIERTVAAPSVFIFPPSDEQLKSGTASVVCLLNNFYPREAKVQWKVDNALQSGNSQESVTEQDSKDSTYSLSSTLTLSKADYEKHKVYACEVTHQGLSSPVTKSFNRGEC",100,102,92.8,106,109

# Next, values leading:
He/Con 2aR [1] [%],He/Con 2aH [2] [%],He/Con 2b [3] [%],He/Con 3a [4] [%],He/Con 1a [5] [%],Binder
97.4,101,91.5,97.1,106,"GpH7-A5/GpH7-B3 variant I336_13S/GpL16-k0 (antibody, human IgG1, kappa, heterodimerized IgG1 (He Ab), mutation in one H chain only; also called He Ab) heavy 1: not shown heavy 2: not shown light: DIVMTQSPLSLPVTPGEPASISCQASESLVHSNRNTYLHWYLQKPGQSPQLLIYKVSNRFSGVPDRFSGSGSGTDFTLKISRVEAEDVGVYYCSQNTHVPPTFGQGTKVEIERTVAAPSVFIFPPSDEQLKSGTASVVCLLNNFYPREAKVQWKVDNALQSGNSQESVTEQDSKDSTYSLSSTLTLSKADYEKHKVYACEVTHQGLSSPVTKSFNRGEC"
104,105,98.2,114,111,"GpH7-A5/GpH7-B3 variant I336_10E/GpL16-k0 (antibody, human IgG1, kappa, heterodimerized IgG1 (He Ab), mutation in one H chain only; also called He Ab) heavy 1: not shown heavy 2: not shown light: DIVMTQSPLSLPVTPGEPASISCQASESLVHSNRNTYLHWYLQKPGQSPQLLIYKVSNRFSGVPDRFSGSGSGTDFTLKISRVEAEDVGVYYCSQNTHVPPTFGQGTKVEIERTVAAPSVFIFPPSDEQLKSGTASVVCLLNNFYPREAKVQWKVDNALQSGNSQESVTEQDSKDSTYSLSSTLTLSKADYEKHKVYACEVTHQGLSSPVTKSFNRGEC"
116,109,117,102,111,"GpH7-A5/GpH7-B3 variant I336_08L/GpL16-k0 (antibody, human IgG1, kappa, heterodimerized IgG1 (He Ab), mutation in one H chain only; also called He Ab) heavy 1: not shown heavy 2: not shown light: DIVMTQSPLSLPVTPGEPASISCQASESLVHSNRNTYLHWYLQKPGQSPQLLIYKVSNRFSGVPDRFSGSGSGTDFTLKISRVEAEDVGVYYCSQNTHVPPTFGQGTKVEIERTVAAPSVFIFPPSDEQLKSGTASVVCLLNNFYPREAKVQWKVDNALQSGNSQESVTEQDSKDSTYSLSSTLTLSKADYEKHKVYACEVTHQGLSSPVTKSFNRGEC"
104,100,101,102,107,"GpH7-A5/GpH7-B3 variant I336_09D/GpL16-k0 (antibody, human IgG1, kappa, heterodimerized IgG1 (He Ab), mutation in one H chain only; also called He Ab) heavy 1: not shown heavy 2: not shown light: DIVMTQSPLSLPVTPGEPASISCQASESLVHSNRNTYLHWYLQKPGQSPQLLIYKVSNRFSGVPDRFSGSGSGTDFTLKISRVEAEDVGVYYCSQNTHVPPTFGQGTKVEIERTVAAPSVFIFPPSDEQLKSGTASVVCLLNNFYPREAKVQWKVDNALQSGNSQESVTEQDSKDSTYSLSSTLTLSKADYEKHKVYACEVTHQGLSSPVTKSFNRGEC"
104,104,101,88.8,105,"GpH7-A5/GpH7-B3 variant I336_12R/GpL16-k0 (antibody, human IgG1, kappa, heterodimerized IgG1 (He Ab), mutation in one H chain only; also called He Ab) heavy 1: not shown heavy 2: not shown light: DIVMTQSPLSLPVTPGEPASISCQASESLVHSNRNTYLHWYLQKPGQSPQLLIYKVSNRFSGVPDRFSGSGSGTDFTLKISRVEAEDVGVYYCSQNTHVPPTFGQGTKVEIERTVAAPSVFIFPPSDEQLKSGTASVVCLLNNFYPREAKVQWKVDNALQSGNSQESVTEQDSKDSTYSLSSTLTLSKADYEKHKVYACEVTHQGLSSPVTKSFNRGEC"
104,103,98.7,94.4,109,"GpH7-A5/GpH7-B3 variant I336_11K/GpL16-k0 (antibody, human IgG1, kappa, heterodimerized IgG1 (He Ab), mutation in one H chain only; also called He Ab) heavy 1: not shown heavy 2: not shown light: DIVMTQSPLSLPVTPGEPASISCQASESLVHSNRNTYLHWYLQKPGQSPQLLIYKVSNRFSGVPDRFSGSGSGTDFTLKISRVEAEDVGVYYCSQNTHVPPTFGQGTKVEIERTVAAPSVFIFPPSDEQLKSGTASVVCLLNNFYPREAKVQWKVDNALQSGNSQESVTEQDSKDSTYSLSSTLTLSKADYEKHKVYACEVTHQGLSSPVTKSFNRGEC"
112,110,111,104,112,"GpH7-A5/GpH7-B3 variant I336_06M/GpL16-k0 (antibody, human IgG1, kappa, heterodimerized IgG1 (He Ab), mutation in one H chain only; also called He Ab) heavy 1: not shown heavy 2: not shown light: DIVMTQSPLSLPVTPGEPASISCQASESLVHSNRNTYLHWYLQKPGQSPQLLIYKVSNRFSGVPDRFSGSGSGTDFTLKISRVEAEDVGVYYCSQNTHVPPTFGQGTKVEIERTVAAPSVFIFPPSDEQLKSGTASVVCLLNNFYPREAKVQWKVDNALQSGNSQESVTEQDSKDSTYSLSSTLTLSKADYEKHKVYACEVTHQGLSSPVTKSFNRGEC"
